The target of experiment [1] is HLA-A*02 (human).
Experiment [2] addresses HLA-A*02 (human). The description is as the table's title states.

Where two headings read alike, the source gives them in different places.

In the case of KIIDFLSAL [KIIDFLSAL (SEQ ID NO: 235)], the binding result in the experiment with HLA-A*02 [1] is listed as “binds”. The same measure, in the same setting: under KLQNIMMLL [KLQNIMMLL (SEQ ID NO: 230)] stands “binds”; under AILAHLNTV [AILAHLNTV (SEQ ID NO: 229)], “binds”. As to RLMEENWNA [RLMEENWNA (SEQ ID NO: 27)], the binding result with HLA-A*02 [2] is “binds”.

The record behind these values is patent US20170189508A1 (IMMATICS BIOTECHNOLOGIES, published 2017).
